Data on one substance can be found in US20090214518A1.

The target of this experiment is Endothelin B receptor (ETRB) (human) (UniProt P24530). The experiment can be described thus: cell-based or functional assay.
Sequence of UniProt P24530 (P24530 27-442 limits assumed): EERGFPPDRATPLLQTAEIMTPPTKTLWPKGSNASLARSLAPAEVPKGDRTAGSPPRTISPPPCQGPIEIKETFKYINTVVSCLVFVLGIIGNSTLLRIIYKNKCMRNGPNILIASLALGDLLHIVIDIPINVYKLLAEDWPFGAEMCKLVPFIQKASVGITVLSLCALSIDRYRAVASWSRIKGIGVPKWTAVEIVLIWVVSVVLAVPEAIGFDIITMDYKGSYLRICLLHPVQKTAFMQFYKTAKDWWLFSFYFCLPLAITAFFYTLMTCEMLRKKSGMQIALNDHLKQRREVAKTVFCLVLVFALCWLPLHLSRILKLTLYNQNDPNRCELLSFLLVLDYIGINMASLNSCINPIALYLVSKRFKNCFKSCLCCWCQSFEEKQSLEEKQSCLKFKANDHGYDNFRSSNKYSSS

As to ETRB antagonist peptide, BQ-788, the ICAM-1 mRNA in HUVEC (qRT-PCR) is above 7 fold and the adherence of activated human T cells to HUVEC came to 40%.
